Columns and labels:
[1] = target: nanog_mouse Nanog (UniProt Q80Z64)
[2] = target: nanog_mouse Nanog (UniProt Q80Z64); remark: listed apart in the source
[3] = target: nanog_mouse Nanog (UniProt Q80Z64); remark: listed apart in the source

Sequence of nanog_mouse Nanog (Q80Z64 whole entry): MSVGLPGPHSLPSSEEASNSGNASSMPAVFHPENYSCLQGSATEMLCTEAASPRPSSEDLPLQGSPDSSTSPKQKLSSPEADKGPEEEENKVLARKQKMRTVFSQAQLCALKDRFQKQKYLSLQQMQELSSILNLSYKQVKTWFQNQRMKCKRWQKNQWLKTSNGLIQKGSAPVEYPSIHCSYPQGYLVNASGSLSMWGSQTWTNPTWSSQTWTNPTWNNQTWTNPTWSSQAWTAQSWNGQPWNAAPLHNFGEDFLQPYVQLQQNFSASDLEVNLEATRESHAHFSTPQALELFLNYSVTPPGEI
Sequence of Transcription factor SOX-2 (Mus musculus), P48432 T217A (P48432 whole entry T217A): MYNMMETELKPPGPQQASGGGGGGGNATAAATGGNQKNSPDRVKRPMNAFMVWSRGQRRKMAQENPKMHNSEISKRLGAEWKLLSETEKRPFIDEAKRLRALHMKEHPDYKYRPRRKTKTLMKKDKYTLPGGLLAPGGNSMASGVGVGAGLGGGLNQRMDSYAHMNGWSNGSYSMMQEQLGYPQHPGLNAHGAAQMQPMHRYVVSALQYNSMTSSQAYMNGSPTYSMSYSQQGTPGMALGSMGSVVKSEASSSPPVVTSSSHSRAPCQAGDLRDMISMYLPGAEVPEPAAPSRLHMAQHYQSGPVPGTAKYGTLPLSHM
Sequence of Transcription factor SOX-2 (Mus musculus), P48432 T224A (P48432 whole entry T224A): as the sequence (P48432 whole entry T217A) above, with A217T, T224A counted along it
Sequence of Transcription factor SOX-2 (Mus musculus), P48432 T217A;T224A;S228A (P48432 whole entry T217A/T224A/S228A): as the sequence (P48432 whole entry T217A) above, with T224A, S228A counted along it
Sequence of Transcription factor SOX-2 (Mus musculus), P48432 S228A (P48432 whole entry S228A): as the sequence (P48432 whole entry T217A) above, with A217T, S228A counted along it

## Transcription factor SOX-2 (Mus musculus), P48432 T217A
[1]
  effect of a mutation on the interaction: disrupting interaction

## Transcription factor SOX-2 (Mus musculus), P48432 T217A;T224A;S228A
[2]
  effect of a mutation on the interaction: disrupting interaction

## Transcription factor SOX-2 (Mus musculus), P48432 S228A
[3]
  effect of a mutation on the interaction: disrupting interaction

## Transcription factor SOX-2 (Mus musculus), P48432 T224A
[3]
  effect of a mutation on the interaction: disrupting interaction
